The Kd is the constant that tells how readily two partners part at equilibrium.

The target in test [1] is chicken PHT1 (purified, wild type). The test is described as follows: thermal stability (thermal shift) of PHT1 with TASL peptides. Conditions: chain shown with the change, peptide concentration 50 µM, read off a plot.
Test [2] addresses biotinylated chicken PHT1 (BLI sample) (chicken). Put plainly: BLI; biotinylated PHT1 on streptavidin biosensors; Sb27 6-800 nM; 22 °C; 50 mM HEPES pH 7.5, 100 mM NaCl, 0.02% DDM/0.004% CHS, 0.5% BSA; 1:1 binding model. On the technique in general: Biolayer interferometry detects binding as a change in optical thickness at a sensor tip.

Sequence of chicken PHT1 (purified, wild type) (chain, as listed by the source): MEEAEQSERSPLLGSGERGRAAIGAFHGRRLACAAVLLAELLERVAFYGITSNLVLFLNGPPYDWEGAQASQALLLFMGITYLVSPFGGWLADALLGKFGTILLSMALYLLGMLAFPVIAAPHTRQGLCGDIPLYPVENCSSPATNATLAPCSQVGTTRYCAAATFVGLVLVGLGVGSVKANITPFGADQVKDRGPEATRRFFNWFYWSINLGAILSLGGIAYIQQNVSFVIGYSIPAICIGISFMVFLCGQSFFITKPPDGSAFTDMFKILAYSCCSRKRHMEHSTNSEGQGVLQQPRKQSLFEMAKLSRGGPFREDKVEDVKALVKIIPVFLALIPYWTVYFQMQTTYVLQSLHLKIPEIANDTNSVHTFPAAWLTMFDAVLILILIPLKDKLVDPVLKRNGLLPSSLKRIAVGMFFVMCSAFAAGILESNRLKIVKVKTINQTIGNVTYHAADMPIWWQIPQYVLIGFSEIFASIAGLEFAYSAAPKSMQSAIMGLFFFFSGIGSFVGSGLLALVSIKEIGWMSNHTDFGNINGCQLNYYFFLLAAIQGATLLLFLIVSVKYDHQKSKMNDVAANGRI
Sequence of biotinylated chicken PHT1 (BLI sample) (chicken) (A6QQL0 other isoform, or with tags, fused parts or gaps): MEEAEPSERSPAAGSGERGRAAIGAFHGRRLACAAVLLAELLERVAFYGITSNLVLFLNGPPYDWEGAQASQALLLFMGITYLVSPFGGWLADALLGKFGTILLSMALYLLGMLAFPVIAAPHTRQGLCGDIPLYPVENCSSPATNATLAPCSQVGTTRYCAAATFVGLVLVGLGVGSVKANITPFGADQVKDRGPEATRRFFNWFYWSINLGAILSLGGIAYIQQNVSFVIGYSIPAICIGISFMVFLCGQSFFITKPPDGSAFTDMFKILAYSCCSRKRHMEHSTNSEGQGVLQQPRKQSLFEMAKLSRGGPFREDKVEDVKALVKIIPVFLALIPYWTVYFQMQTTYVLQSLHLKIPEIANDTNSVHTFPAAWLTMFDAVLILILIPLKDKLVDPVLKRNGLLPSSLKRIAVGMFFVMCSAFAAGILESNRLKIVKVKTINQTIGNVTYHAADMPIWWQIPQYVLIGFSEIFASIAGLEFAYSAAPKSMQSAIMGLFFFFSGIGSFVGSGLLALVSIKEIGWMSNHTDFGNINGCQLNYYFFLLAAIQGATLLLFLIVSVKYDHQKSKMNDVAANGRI

MLSEGALYRIAYL [TASL_(1-13) peptide Y6A]: the other: ΔTm in test [1] (parent: est. 13.6) worked out at 11 Kelvin. For the molecule MLSEGYAYRIAYL [TASL_(1-13) peptide L7A], the other: ΔTm in test [1] (parent: est. 13.6) was determined as 13 Kelvin. On the same count and under the same terms, in the case of MLSAGYLYRIAYL [TASL_(1-13) peptide E4A] it was 0.45 Kelvin; in that of MLAEGYLYRIAYL [TASL_(1-13) peptide S3A], 13 Kelvin. MLSEGYLYRIAYLA [TASL peptide with a length of 14 residues C14A]: the other: ΔTm in test [1] worked out at 15 Kelvin. MLSEGYLYAIAYL [TASL_(1-13) peptide R9A]: in test [1] (parent: est. 13.6), the other: ΔTm was 6.9 Kelvin. Still for that read-out and setting: then MLSEGYLARIAYL [TASL_(1-13) peptide Y8A], with 9.9 Kelvin.

B1: sybody 27 (VHH)
VHH: QVQLVESGGGSVQAGGSLRLSCAASGDIETIWYLGWFRQAPGKEREGVAALSTVTGSTYYADSVKGRFTVSLDNAKNTVYLQMNSLKPEDTALYYCAAAYTGWMAPLWQWVYSYWGQGTQVTVSA
Take B1: in test [2], the Kd came to 400 nM. With ALSEGYLYRIAYL [TASL_(1-13) peptide M1A], in test [1] (parent: est. 13.6), the other: ΔTm was found to be 5.1 Kelvin. On the same count and under the same terms, in the case of MASEGYLYRIAYL [TASL_(1-13) peptide L2A] it was 5.6 Kelvin.

(Values after publication PMC10502012.)
